Results: the nanobody polyreactivity screen of Harvey et al. (2022)

Assay: yeast display, Sf9 membrane polyspecificity reagent, FACS + sequencing; frameworks hold sequencing errors
Summary of the method: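 Genes from sorted yeast were amplified by colony PCR, read by MiSeq 2 × 250 sequencing and filtered on CDR length. These cells carried a synthetic nanobody library in Saccharomyces cerevisiae BJ5465 and were sorted by FACS into low and high (top ~1%) gates on anti-HA and streptavidin fluorescence. Polyreactivity is labelled according to the gate of origin.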

| Sequence | polyreactivity (PSR sort gate) |
| --- | --- |
| QVQLVESGAGIVQAGGSLRLSCAASGSTFGINAMGWYRQAPGKEREFVASISWSTGTTYYADSVKGRFTISRDNAKNTVYLQRNSLKPEDTAVYYCAADSSRFYGRPRYYYWGQGTQVTVSS | high polyreactivity |
| QVQLVESGAGLVHAGGSLRLSCAASGNTFIDYAMGWYRQAPGKERELVASITSGGGSTYYADSVKGRFTISRDNEKNTDYLQMNSLKPEDTAVFFFAAERYNSEAIFRSYDYWGQGSQVTVSS | low polyreactivity |
| QVQLVESGAGLVQAAGSLRLSCDASGYIFEWNAMGWYRQAPGKERELVASIDSDGSTYYADSVKGRFTISRDNAKNTVYLQMNSLKPEDTAVYYSAKSIDGWYWRRRRYDYWGQGTQVTVSS | low polyreactivity |
| QVQLVESGAGLVQAGASLRLSCDASAFIYVTYAMGWYRQAPGKEMELVAAITNSGGTTYYADSVKGRFTISRDNAKNTVYLQMNSLKPEDTAVYYCNKPYGGETAHREFDYWGQGTQVTVSS | low polyreactivity |
| QVQLVESGAGLVQAGGSLPLSCAASGSTFPKYAMGWYRQAPGKEREFVSAITSSGGRTFYADSVKGRFTISRDNAKNTVYLQMNSLKPEDTAVYYCAAYYYSWSGAFIYEYWGQGTQETVSS | high polyreactivity |
| QVQLVESGAGLVQAGGSLRISCAASGFTFQKNAMGWYRQSPGKERELVAAISSSGGSTYYADSVKGRFTISRDNAKNTVYLQMNSMKPDDTAVYYCNAVTLANKYNDYGYWGQGTQVTVSS | high polyreactivity |
| QVQLVESGAGLVQAGGSLRISGAASGRIFGKYAMGWYRQPPGKEREFVARISFSGGTTYYADSVKGRFTISRDNAKNTVYLQMNSLKPEDTAVYYCAARRQSGYGRQLDYWGQGTQVTVSS | high polyreactivity |
| QVQLVESGAGLVQAGGSLRLCCAASGRIFRSYAMGLYREAPGKERELVAAITWSGGSTYYADSVKGRFTISRDNAKNSVYLQMNSQKPEETAVYYCARVDTKKYSHTGYEYWGQGTQVTVSS | high polyreactivity |
| QVQLVESGAGLVQAGGSLRLSCAACGSTFRGNAMGWYRQAPGKEREFVASISRRGGRTNYADSVKGRFTISRDNAKNTVYLQMNSLKPEDTAVYYCAATTVPLGDYWGQGTQVTVSS | high polyreactivity |
| QVQLVESGAGLVQAGGSLRLSCAASGIIFSDNAMGWYRQAPGKEMELVAAIDWSGGSTYYADSVKGRFTISRDNAKNTVYLHMNSLKPEDTAVDYCAAEYRDYVPVNVTGDYWGQGTQVTVSS | low polyreactivity |
| QVQLVESGAGLVQAGGSLRLSCAASGITFASYGMGWYRQAPGKERELVAAISQRGGRTYYADSVKGRFTISRDNAKNTVYLQMNRLKPEDTAVYYCAARTYTITGRSPQYLNAYGYWGQGTQVTVSS | high polyreactivity |
| QVQLVESGAGLVQAGGSLRLSCAASGLIFSVYGLGWYRQEPGKERELVAAISSRGGSTYYADSVKGRFTISRVNANYTVYLQMNSLKPEDTAFYYCARRAYREHHRCQYYYWGQGTQLTVSS | high polyreactivity |
| QVQLVESGAGLVQAGGSLRLSCAASGRIFDIYAMGWYRQAPGKERELVAAITRRGGTTYADSVKGRFTISRDNAKNTVYLQMNSLKPEDTAVYYCARYHWYYRVSKSDSWGQGTQVTVSS | high polyreactivity |
| QVQLVESGAGLVQAGGSLRLSCAASGRTFDSNAMGWYRQAPGKEREFFASIRWTVTSTYYADSVKGRFTISRDNAKNTVYLQMNSLKPEDTAVYYCNAEDYYYVGRSDYWGQGTQVTVSS | low polyreactivity |
| QVQLVESGAGLVQAGGSLRLSCAASGRTFSGYAMGGYRQAPGKERELVAAISWRGGRTYYADSVKGRFTISRDNAKNTVYLLMYSLKPEDTAVYYCNTVGHVYYGEFDYWGQGTQVTVSS | high polyreactivity |
| QVQLVESGAGLVQAGGSLRLSCAASGRTFVYNAMGWYRQAPGKERELVAAISSDGASTYYADSVKGRFTISRDNAKNTVYLQMNRLNPEDTAVYYCAADFSYYSYEHYYWGQATQVTVSS | low polyreactivity |
| QVQLVESGAGLVQAGGSLRLSCAASGRTFWSNAMGWYRQAPGKEREFVAAIRSTVGSTYYADSVKGRFTISRDNAKNTVYLQMNSLNPEDTAVYYCYVSSGYYAYYYWGQGTQVTVSS | high polyreactivity |
| QVQLVESGAGLVQAGGSLRLSCAASGSILYINTMGWYRQAPGKERELVAAITSSGGSTYYADSVKGRFTISRDNAKNTVDLQMNSLKPEDTAVYYCAAVGYYGGYNYWGQGTQVTVSS | low polyreactivity |
| QVQLVESGAGLVQAGGSLRLSCAASGSIYVYAMGWSRQAPGKERELVAAISWSDGSTYYADSVKGRFTISRDNAKNTVYLQMNSLKPEDTAVYYCNAYGIQVDTYWQDRVEYDYWGQGTQVTVSS | high polyreactivity |
| QVQLVESGAGLVQAGGSLRLSCAASGSTFSYNAMGWYRQAPGKERELVAAISRRGDSTYYADSVKGRFTISRDNAKNTVYLQMNSLKTEDTAVYYCYAVTYYSHRYFSWYSRKGYDYWGQGTEVTVSS | high polyreactivity |
| QVQLVESGAGLVQAGGSLRLSCAASGSTLYRYAMGWYRQAPGKERELVAAISRRGDSTYYADSVKGRFTISRDNAKNTVYLQMNSLKPEDTAVYYCNTARSAGKYDYWGQGTQVTVSS | high polyreactivity |
| QVQLVESGAGLVQAGGSLRLSCAASGTIFRDYAMGWYRQAPGKERELVAAISSDGSTYYADSVKGRFTISRDNAKNTVYLEMNSLKPEDTAAYYCNARSYYPWEGFDYWGQGTQVTVSS | low polyreactivity |

| Sequence | polyreactivity (PSR sort gate) |
| --- | --- |
| QVQLVESGAGLVQAGGSLRLSCAASGYIFLRYAMGWSRQAPGKERELVAAIRGGSTNYADSVKGRFTISRDNAKNTVYLQMNSLKPEDTAVYYCAARGSKKQAYGYWGQGTQVTVSS | high polyreactivity |
| QVQLVESGAGLVQAGGSLRLSCAASRRIIYKYAMGWYSQAPGKERELVAAITSGGSTYYADSVKGRYTISRDNAKNTVDLQMNSLKPQDTAVYYCAASYARLSVWYDYWRQGTQVTVSS | high polyreactivity |
| QVQLVESGAGLVQAGGSLRLSCAATGLTFDYNAMGWYRKAPGKERELVAAITWSGGSTYYADSVKGRFTISRDNAKNTVYLQMNSLKTEDTAVYYCATESYGLDYYDEYNYWGQGTQVTVSS | low polyreactivity |
| QVQLVESGAGLVQAGGSLRLSCAPSGNIFSVYAMGWYRHAPGKARELVARITKTVGGTYYADSVKGRFTISRDNAKNTVYLQMNSLKPEDTAVYYCAARVWTGNGGSKGAYDYWGQGTQVTVSS | high polyreactivity |
| QVQLVESGAGLVQAGGSLRLSCAPSGSTFMTYAMGWYRQAPGKERELVAAIRWSGGGTYYADSVKGRFTISRDNAKNTVYLQMNSLKPEDTAVYFCAADHFNYTTGRDYWGQGTQVTVSS | low polyreactivity |
| QVQLVESGAGLVQAGGSLRLSCASSGSIFVSNAMGWYRKAPGKERELVAAISQSGGSTYYADSVKGRFTISRDNAKNTVYLLMNSLKPEDTAVYYCATPIRSGFRIYDYWGQGTQVTVSS | low polyreactivity |
| QVQLVESGAGLVQAGGSLRLSCASSGYIFDWYAMGWYRQAHGKERELGAAISGRGGSTYYADSVKGRFTISRDNSKNTVYLQMYSLKPEYTAVYYCNAALSPWGYNYWGQGTQVTVSS | high polyreactivity |
| QVQLVESGAGLVQAGGSLRLSCDASGSIFSWYAMGWYRQARGKERELVAAITWSGGSTYYADSVKGRFTISRDNAKNTVYLEMNSLKPEDTAVYYCNTYSYYAFDWGLGTQVTVSS | high polyreactivity |
| QVQLVESGAGLVQAGGSLRLTCAASGIIFPFYAMGWYRQAPGKERELVAGITSGGDTYYADSVKGRFTISRDNAKNTVYLQMNSLKPEDTAVSYCAAVYRRQYGYWGQGTQVTVSS | high polyreactivity |
| QVQLVESGAGLVQAGGSLRVSCAASGSIFSYYTMGWYRQPPGKERELVAAITYRGGSTYYADSVKGRFTISRDNAKNTVYLQRNSLKPEDTAVYYCAARTRNGAGYYWGQGTQVTVSS | high polyreactivity |
| QVQLVESGAGLVQARGSLRLSCAPSGRNFTYYAMGWYRQAPGTETELVAAISWSGGRTYYADSVKGRFTISRDNAKNTVYLKMNSLKPEDTAVYYCAADYYAFKFGRFDYWGQGTQVTVSS | high polyreactivity |
| QVQLVESGAGLVQEGGSLRLSCAASGRIFQTYTMGWYRQAPGKERELVAAISASGGRTYYADSVKGRFTISRDNAKNTVYLQMNSLKPEDTAVYYCAADIRGYDYWGQGTQVTVSS | high polyreactivity |
| QVQLVESGAVLVQAGGSIRLSCAASGSSFPYYAMGWYRQAPVKERELVATISQDGGRTYADSVKGRFTISRDNAKNTVYLQMNSLKPEDTAVDYCAADYSVNYDFGYWGQGTQVTVSS | low polyreactivity |
| QVQLVESGEGLVQAGGSLRLSCAASGITFGWYAMGWYRQAPGKERELVASISSSGSTNYADSVKGRFTISRDNAKNTVYLQMNSLKPEDTAVYYCNKDYLLSHYYIYVIEGDYWGQGTQVTVSS | low polyreactivity |
| QVQLVESGEGLVQAGGSLRLSCAASGRTFYANAMGWYRQAPGKERELVASITTSGGTYYADSVKGRFTISRDNAKNTVYLQMNSLKPEDTAVYYCAADVYRSIGYDYWGQGTQVTVSS | low polyreactivity |
| QVQLVESGEGLVQAGGSLRLSCAASGSIFTYNAMGWYRQAPGKERELVAAISRGGSTYYADSVKGRFSISRDNAKNTVNLQMNSLIPEDTAVYYCNARRYRHDGYWGQGTQVTVSS | high polyreactivity |
| QVQLVESGGAIVQAGGSHRLRCAASGSILGRYAMAWYRQAPGKERELVAAISRRGGSTTYADSVKGRFTISRDNAKNTVYFQMNSLKPEDTALYYCNTVSSWGRNYQDEYDYWGQGTQVSVSS | high polyreactivity |
| QVQLVESGGALDQAGGSLRVSCAASGSIFPIYTMGWYRQAPGKERELVAGIRYRGGNTYYADSVKGRFTISRDNAKNTVYLQMNSLNPEDTAVYYCAARAYYRYLYKLNYWGQGTQVTVSS | high polyreactivity |
| QVQLVESGGALLQAGGSLRLSCAASGRIFYHYAMGWYRQAPGKESELVAASTWSGVSTYYADSVKGRFTISRDNAKNTVDLQMNRLIPADTAVYYCATSSPYGVRRYSRGSWGQGTQVTVSS | high polyreactivity |
| QVQLVESGGALVQAGCSLRLSCAASGRTFYRNAMGWYRQAPGKERELVARISRNGGTTYYADSVKGRFTISRDNAKNTVYLQMNSLIPEYTAVYYCAAPIYDGARGDYWGQGTQVTVCS | high polyreactivity |
| QVQLVESGGALVQAGGRLRLSCAASGSTFYTYAMGWYRHAPGKEREIVAAISWSDDSTYYADSVKGRFTISRDNAKNTVYLQMTSLKPEDTAVYYCAAEWGQRGGGGYYYWGQGTQVTVSS | low polyreactivity |
